What all share (type): biochemical, Corynebacterium aquaticum AKU611
The target in series [1] is T1, levodione reductase (Leifsonia aquatica, UniProt Q9LBG2).
T1 construct: The LR is isolated and purified from the cell-free extract of disrupted cells; made in house; host or cells: Corynebacterium aquaticum AKU611 (FERM BP-6448); This is the natural producer and there was no recombinant expression; The enzyme was purified by ammonium sulfate precipitation and DEAE-Sephacel, alkyl Superose and MONO Q chromatography
T1 sequence (Q9LBG2 1-267): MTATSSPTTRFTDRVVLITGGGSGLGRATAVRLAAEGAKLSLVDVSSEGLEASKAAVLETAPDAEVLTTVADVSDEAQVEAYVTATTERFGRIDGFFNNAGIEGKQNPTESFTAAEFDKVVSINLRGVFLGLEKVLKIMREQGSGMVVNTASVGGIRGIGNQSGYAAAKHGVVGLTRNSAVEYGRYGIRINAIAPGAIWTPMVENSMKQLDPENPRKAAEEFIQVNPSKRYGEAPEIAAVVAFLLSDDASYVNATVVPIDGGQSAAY
Nature of the series: Substrate specificity, standard LR enzyme assay (NADH decrease at 340 nm). The following applies: for Enzyme Activity: substrate 2 mM final concentration instead of levodione. On the procedure: A basal reaction mixture having a total volume of 500 μl includes 100 μl of 1 M potassium phosphate buffer (pH 7.0), 20 μl of 8 mM NADH in 0.2 mM KOH, 10-40 μl of the enzyme solution (i.e., levodione reductase), and water up to a total of 500 μl . This reaction mixture was incubated for 1 minute at 37 ° C. Then, 2 μl of 0.5 M levodione solution were added to give a final concentration of 2 mM, and the whole mixture was incubated for 1 minute at 37 ° C. The levodione reductase enzyme activity was monitored with the decrease of the absorbance of NADH at 340 nm.
In the present invention, one unit of the levodione reductase enzyme activity is defined as the amount of the levodione reductase which catalyzes the oxidation of 1 μmole of NADH per minute.
The substrate specificity of the enzyme was determined using the same enzyme assay method as described under 1, except that various solutions containing different substrates (2 mM final concentration in the reaction mixture) were used instead of levodione.

Substrate in series [2]: C[C@@H]1CC(=O)CC(C)(C)C1=O
Nature of the series: Michaelis constant (Km) and maximum velocity (Vmax). The following applies: other: compound as substrate; pH 7.0; 37.0 °C.

Substrate in series [3]: C[C@@H]1C[C@@H](O)CC(C)(C)C1=O
Described as above. The following applies: other: compound as substrate; pH 7.0; 37.0 °C.

Results on three molecules are retold here after patent publication US6465228B1, “Levodione reductase” (Roche Vitamins, Inc., priority 1999, dated 2002).

For orientation: Km means the substrate concentration at which the rate is half of its maximum.

For the molecule `C[C@@H]1CC(=O)CC(C)(C)C1=O` [Levodione, (6R)-2,2,6-trimethylcyclohexane-1,4-dione], the “Enzyme Activity” value in series [1] came out at 5.66 unit/ml. Moreover, the “substrate specificity of the enzyme” value in series [1] (substrates 2 mM) is on record as “the only substrate for which the enzyme exhibited activity”.
As for `O=C1CCCCC1` [Cyclohexanone], the “Enzyme Activity” value in series [1] is listed as “Not detected (ND)”.

B1: levodione reductase (Leifsonia aquatica) (protein)
chain: MTATSSPTTRFTDRVVLITGGGSGLGRATAVRLAAEGAKLSLVDVSSEGLEASKAAVLETAPDAEVLTTVADVSDEAQVEAYVTATTERFGRIDGFFNNAGIEGKQNPTESFTAAEFDKVVSINLRGVFLGLEKVLKIMREQGSGMVVNTASVGGIRGIGNQSGYAAAKHGVVGLTRNSAVEYGRYGIRINAIAPGAIWTPMVENSMKQLDPENPRKAAEEFIQVNPSKRYGEAPEIAAVVAFLLSDDASYVNATVVPIDGGQSAAY
notes: The LR is isolated and purified from the cell-free extract of disrupted cells; made in house; host or cells: Corynebacterium aquaticum AKU611 (FERM BP-6448); This is the natural producer and there was no recombinant expression; The enzyme was purified by ammonium sulfate precipitation and DEAE-Sephacel, alkyl Superose and MONO Q chromatography
As for B1, in series [2], the Michaelis-Menten constant (Km) was determined as 8.5 mM and the Vmax came out at 101.26 unit/mg. In series [3], the Km is reported as 1.36 mM and the Vmax is 15.91 unit/mg.
